# Experimental data taken from patent US20210253725A1 (BIONTECH, published 2021).
# Changes are numbered by the printed parent chain. Names and notes keep the numbering of the source.
# T1: CD27 expressed on the cell surface (HT1080_CD27 cells) (human, UniProt P26842 20-260)
# T1 sequence (looked up): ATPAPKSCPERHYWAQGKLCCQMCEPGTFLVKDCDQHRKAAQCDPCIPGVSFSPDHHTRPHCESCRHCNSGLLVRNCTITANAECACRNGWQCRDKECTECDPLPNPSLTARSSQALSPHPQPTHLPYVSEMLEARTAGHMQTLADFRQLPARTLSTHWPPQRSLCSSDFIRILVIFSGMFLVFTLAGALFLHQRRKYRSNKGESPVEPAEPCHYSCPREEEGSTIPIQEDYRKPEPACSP
# T2: CD27 protein (His-tagged, Sino Biological Inc. 10039-H08B1) (human, UniProt P26842 20-192)
# T2 construct: bought; coated onto ELISA plates; also called human CD27; recombinant protein; not shown: His tag
# T2 sequence (looked up): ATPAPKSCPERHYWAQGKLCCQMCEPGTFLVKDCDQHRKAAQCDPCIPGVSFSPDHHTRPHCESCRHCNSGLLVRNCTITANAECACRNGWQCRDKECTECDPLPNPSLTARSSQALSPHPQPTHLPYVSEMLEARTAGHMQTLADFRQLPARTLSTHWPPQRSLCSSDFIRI
# B1: P018.S.05.A.C06 (antibody, V domains shown)
# VH: QSLEESGGRLVTPGTPLTLTCTASGFSLSNYYITWVRQAPGEGLEWIGTISTAGNTYFASWAKGRFTISRTSTTVDLKMTSPTTEDTATYFCARDGAGDSNYYRNLWGQGTLVTVSS
# VL: DIVLTQTPASVEAAVGGTVTIKCQASQSIDRFLAWYQQKPGQPPKLLIVDASTLESGVPSRFSGSGSGTEFTLTISDLESDNAATYYCQQGYSISDIDNVFGGGTEVVVK
# notes: V regions on human Ig constant parts; also called AB27_85
# B2: P018.S.06.A.E01 (antibody, V domains shown)
# VH: B1 VH with N30S, I33M, A62V, A93T
# VL: B1 VL with D1A, V3D, L4M, Q27E, S93A
# notes: V regions on human Ig constant parts; also called AB27_104
# B3: P018.S.07.A.F03 (antibody, V domains shown)
# VH: B1 VH with K63N
# VL: B1 VL
# notes: V regions on human Ig constant parts; also called AB27_127
# B4: P018.S.06.A.F01 (antibody, V domains shown)
# VH: B1 VH with N30S, I33M
# VL: B1 VL with D1A, I2Y, V3D, L4M, Q27E
# notes: V regions on human Ig constant parts; also called AB27_107
# B5: P018.S.02.A.G03 (antibody, V domains shown)
# VH: QSVEESGGRLVTPGTPLTLTCTVSGFSLSSYVMSWVRQAPGKGLEWIGYIDYGGTAYYASWAKGRFTISKTSTTVELKITSPTIEDTATYFCARGGYGGYILVTGLWGPGTLVTVSS
# VL: DIVMTQTPASVSEPVGGTVTIKCQASQTIISYLSWYQQKPGQPPKLLIYGASTLASGVPSRFKGSGSVTEYTLTISDLESADAATYYCQTYYGGGPFGNGFGGGTEVVVK
# notes: V regions on human Ig constant parts; also called AB27_38
# B6: P018.S.02.A.F06 (antibody, V domains shown)
# VH: B5 VH with A56P
# VL: B5 VL with I2V, T28S, I30S, L33C, K39R, V68G
# notes: V regions on human Ig constant parts; also called AB27_36
# B7: P018.S.09.A.H04 (antibody, V domains shown)
# VH: B5 VH with I50S, S60N, G98D, I101L
# VL: B5 VL with T28S, I30S, S34A, G50S, P59S, V68G
# notes: V regions on human Ig constant parts; also called AB27_161
# B8: P018.S.04.A.H04 (antibody, V domains shown)
# VH: QSVEESGGRLVTPGTPLTLTCTVSRFSLSTSTMTWVRQAPGKGLEWIGIINGGGSAYYANWAKGRFTISKTSTTVDLKITSPTTEDTATYFCARSYDSYDDIYGTSRLYAFDPWGPGTLVTVSS
# VL: AYDMTQTPASVEVAVGGTVTINCQASESIYSNLAWYQQKPGQPPKLLIYRASYLASGVSSRFKGSGSGTQFTLTISGVESADAATYYCQQGYSSSDVDNAFGGGTEVVVK
# notes: V regions on human Ig constant parts; also called AB27_79
# B9: P018.S.04.A.F04 (antibody, V domains shown)
# VH: QSVEESGGRLVTPGTPLTLTCTVSGFSLSNYAMSWVRQAPGKGLEWIGIIYASGTTYYARWAKGRFTISRTSTTVDLKISSPTTEDTATYFCAREYDSYDYAYGSSIYAFDPWGPGTLVTVSS
# VL: B8 VL with A9S, E12S, V13A, N22K, P43R, Y53T, T74S, D96N, A100V
# notes: V regions on human Ig constant parts; also called AB27_77
# B10: P018.S.03.A.C02 (antibody, V domains shown)
# VH: B8 VH
# VL: B8 VL with A14V, N22S, S31A, D96N, A100S
# notes: V regions on human Ig constant parts; also called AB27_44
# B11: P018.S.03.A.H05 (antibody, V domains shown)
# VH: QSLEESGGDLVKPGASLTLTCTASGFSFSDRHYMCWVRQAPGKGLEWIGSIYTGKDSIDYASWAKGRFTISKTSSTTVTLQMTSLTAADTATYFCARDLLYGSSSGYLHTWGPGTLVTVSS
# VL: DIVMTQTPSSVSEPVGGTVTIKCQASHNIYSNLAWYQQKLGQPPKLLIYYASTLASGVPSRFKGSGSGTEYTLTISDLESDDAATYYCQSAYYGSIDITFGGGTEVVAQ
# notes: V regions on human Ig constant parts; also called AB27_63
# B12: P018.S.01.A.D04 (antibody, V domains shown)
# VH: QEQLEESGGRLVTPGGTLTLTCTASGFSLSNYDMSWVRQAPGKGLEWIGYIWSDGNTDYASWAAGRFTASRASTTVDLKMTSLTTEDTATYFCARGYTGFFLWGPGTLVTVSS
# VL: DVVMTQTPSSVSTAVGDTVTIKCQASQSIGSSYLSWYQQKPGQPPKLLIYKTSTLASGVPSRFKGSGSGTEFTLTISDLESDDAATYYCQCTYYGGSWRVAFGGGTEVVVK
# notes: V regions on human Ig constant parts; also called AB27_12
# B13: P018.S.01.A.G02 (antibody, V domains shown)
# VH: B12 VH with N31S, S61T
# VL: B12 VL with T13A, D17G
# notes: V regions on human Ig constant parts; also called AB27_21
# B14: P018.S.05.A.H02 (antibody, V domains shown)
# VH: B12 VH with S30N, N31S
# VL: B12 VL with T13A, D17G, K51E, T52A
# notes: V regions on human Ig constant parts; also called AB27_94
# B15: P018.S.07.A.B06 (antibody, V domains shown)
# VH: QEQLVESGGDLVKPGTSLTLTCKASGLDFSSTPYMCWVRQAPGKGLEWIACIYTGSVIYTYYASWAKDRFTISKISSTSVTLQMTSLTVADTATYFCARSPAGYAAYGYGGFNLWGPGTLVTVSS
# VL: AIEMTQTPFSVSAAVGGTVTINCQASQNIYNNLAWYQQKPGQPPKLLIYGASTLESGVPSRFEGSGSGTEYTLTISDLESDDAATYYCQSAYYSSSATDMAFGGGTEVVVK
# notes: V regions on human Ig constant parts; also called AB27_118
# B16: P018.S.05.A.E04 (antibody, V domains shown)
# VH: QEQLEESGGDLVKPEGSLTLTCTASGFSFSSYWICWVRQAPGKGLEWIACIATHSGTDFYASWAKGRFTISKTSSTTVTLQMTSLTAADTATYFCARDPYGFNGDYFSLWGPGTLVTVSS
# VL: ALVMTQTPASVSAAVGGTVTINCQASQSVYNSNYLSWYQQKPGQPPKLLIYKASTLASGVPSRFKGSGSGTQFTLTISGVESDDAATYYCAGYKSYTNDDNGFGGGTEVVVK
# notes: V regions on human Ig constant parts; also called AB27_90
# Biological target: T1, CD27 expressed on the cell surface …
# Experiment: cell-based or functional assay
# Note: test concentration or dose not given here.
"IL-8, cross-linked by F(ab')2 fragment [abs. corr.]",IL-8 [abs. corr.],Binder
1.11,0.539,B1
1.55,0.525,B2
1.41,0.444,B3
1.08,0.405,B4
1.48,-0.061,B5
1.73,0.094,B6
1.4,0.274,B7
1.98,0.579,B8
2.49,1.6,B9
1.58,0.373,B10
1.39,0.401,B11
2.2,0.175,B12
1.88,0.848,B13
1.9,0.369,B14
1.07,0.218,B15
1.33,0.813,B16

# Biological target: T2, CD27 protein (His-tagged, Sino …)
# Experiment: ELISA on coated His-tagged CD27
row,ELISA [abs. corr.],Binder
1,3.35,B1
2,3.35,B2
3,3.53,B3
4,3.4,B4
5,3.13,B5
6,3.24,B6
7,3.36,B7
8,3.46,B8
9,3.35,B9
10,3.36,B10
11,3.36,B11
12,3.4,B12
13,3.67,B13
14,3.47,B14
15,3.35,B15
16,3.35,B16

# Biological target: T1, CD27 expressed on the cell surface …
# Experiment: cellular binding assay, HT1080_CD27 cells
row,Cellular binding assay [RFU],Binder
1,351,B1
2,354,B2
3,380,B3
4,310,B4
5,357,B5
6,294,B6
7,314,B7
8,291,B8
9,320,B9
10,317,B10
11,294,B11
12,341,B12
13,363,B13
14,336,B14
15,372,B15
16,332,B16
